Assay results: PMC7730189

Legend:
[1] = system: RcuCCA (CCA-adding enzyme, tRNA nucleotidyltransferase) (Romanomermis culicivorax); experiment: EMSA; conditions: 6 mM Mg2+; HEPES/KOH pH 7.6, 30 mM KCl, 6 mM MgCl2, 20 C, 10 min; 0.5 pmol tRNA, 0-4 uM enzyme; 5% native PAGE; n = 3
[2] = system: Chimera E (HsaCCA with RcuCCA beta-turn region) (Homo sapiens / Romanomermis culicivorax chimera); experiment: EMSA; conditions: 6 mM Mg2+; HEPES/KOH pH 7.6, 30 mM KCl, 6 mM MgCl2, 20 C, 10 min; 0.5 pmol tRNA, 0-4 uM enzyme; 5% native PAGE; n = 3

Substance	Kd [1] [µM]	Kd [2] [µM]
GCGGAUUUAGCUCAGUUGGGAGAGCGCCAGACUGAAGAUCUGGAGGUCCUGUGUUCGAUCCACAGAAUUCGCA [tRNAPhe (lacking CCA)]	1.3	
mt-tRNAIle (armless, lacking CCA)	1.4	1.8
